Patent US20080020377A1

Tests used:
[1] = molecular target: Tet repressor protein from class B [TetR(B)] (Escherichia coli) (UniProt P04483); test: cell-based or functional assay
[2] = molecular target: TetR(B/D)188-208 (UniProt P0ACT4); test: cell-based or functional assay

Substance	factor of induction of β-galactosidase activity at 60 µM IPTG [1]	induction of β-galactosidase activity against the C-terminal fusion TrxA-pepBs1 (fold higher than the C-terminal fusion) [1]	β-galactosidase activity at 60 µM IPTG [2]
PepBs1-TrxA (N-terminal fusion of pepBs1 to Escherichia coli thioredoxin A) (from UniProt P0AA25 2-109)	40 fold	3	
SbmC(C)-pepBs1 fusion protein (from UniProt P33012 1-157)			4 fold
TrxA-pepBs1 (C-terminal fusion of pepBs1 to Escherichia coli thioredoxin A) (from UniProt P0AA25 2-109)	14 fold		
